Experimental findings from PMC9122495, “Seipin transmembrane segments critically function in triglyceride nucleation and lipid droplet budding from the membrane” (eLife, 2022) are described below.

The data set deals with the molecule itself. Description: cryo-EM structure; LDAF1-FLAG/seipin (1–310) sample in PMAL C8, 25 mM HEPES pH 7.4, 150 mM NaCl, 2 mg/ml, PEGylated with MS(PEG)12; 3D classification without symmetry; one class with the luminal domains used; TM region at low resolution.

B1: seipin (1–310) (domain or fragment, human, UniProt Q96G97 1-310, looked up)
chain: MVNDPPVPALLWAQEVGQVLAGRARRLLLQFGVLFCTILLLLWVSVFLYGSFYYSYMPTVSHLSPVHFYYRTDCDSSTTSLCSFPVANVSLTKGGRDRVLMYGQPYRVTLELELPESPVNQDLGMFLVTISCYTRGGRIISTSSRSVMLHYRSDLLQMLDTLVFSSLLLFGFAEQKQLLEVELYADYRENSYVPTTGAIIEIHSKRIQLYGAYLRIHAHFTGLRYLLYNFPMTCAFIGVASNFTFLSVIVLFSYMQWVWGGIWPRHRFSLQVNIRKRDNSRKEVQRRISAHQPGPEGQEESTPQSDVTED
notes: seipin, human, residues 1-310; No tag is stated for seipin; It was purified through the FLAG tag of co-expressed LDAF1; The sample was treated with MS(PEG)12 methyl-PEG-NHS-ester before cryo-EM; The introduction calls human seipin an undecamer, citing other work; also called human seipin
Consider B1, for which the binding result is given as “binds”.
